Earlier results on one substance are cited in paper PMC2730980.

For the series, the target named is Synaptotagmin II (Rattus norvegicus) (UniProt P29101).
UniProt P29101, sequence (P29101 whole entry): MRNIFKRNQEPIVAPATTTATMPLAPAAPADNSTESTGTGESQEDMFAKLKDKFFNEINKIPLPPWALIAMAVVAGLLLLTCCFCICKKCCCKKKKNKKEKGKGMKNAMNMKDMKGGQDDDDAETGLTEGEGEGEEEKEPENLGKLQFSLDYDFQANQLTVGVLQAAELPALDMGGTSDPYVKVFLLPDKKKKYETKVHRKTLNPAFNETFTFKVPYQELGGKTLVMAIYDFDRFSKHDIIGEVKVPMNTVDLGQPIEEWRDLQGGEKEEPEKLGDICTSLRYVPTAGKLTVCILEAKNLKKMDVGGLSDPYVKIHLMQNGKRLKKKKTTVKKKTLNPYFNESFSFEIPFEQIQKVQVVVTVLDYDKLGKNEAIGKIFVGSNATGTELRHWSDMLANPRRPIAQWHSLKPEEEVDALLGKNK

The term Kd denotes the constant that tells how readily two partners part at equilibrium. Take “Botulinum neurotoxin type B (from UniProt P10844)”: the Kd is 0.4 nM.
